Measurements from patent US20030224390A1, “Method of identifying conformation-sensitive binding peptides and uses thereof” (Karo Bio AB, priority 2000, published 2003).

How the values were obtained:
androgen receptor [1] = biological target: T1, androgen receptor (Homo sapiens, UniProt P10275); test: Yeast two-hybrid screening of unbiased X15 peptide library, ligand induced β-galactosidase activity (FIG. 3, Table 503); type: cell-based; parameters: expressed in transfected cells; host or cells: Saccharomyces cerevisiae PJ69-4α; ligand induced β-galactosidase activity, No Lig / ligand induced β-galactosidase activity, DHT / ligand induced β-galactosidase activity, CPA / ligand induced β-galactosidase activity, RU / ligand induced β-galactosidase activity, Test / ligand induced β-galactosidase activity, MPA: unit not given here
T1 sequence (P10275 1-920): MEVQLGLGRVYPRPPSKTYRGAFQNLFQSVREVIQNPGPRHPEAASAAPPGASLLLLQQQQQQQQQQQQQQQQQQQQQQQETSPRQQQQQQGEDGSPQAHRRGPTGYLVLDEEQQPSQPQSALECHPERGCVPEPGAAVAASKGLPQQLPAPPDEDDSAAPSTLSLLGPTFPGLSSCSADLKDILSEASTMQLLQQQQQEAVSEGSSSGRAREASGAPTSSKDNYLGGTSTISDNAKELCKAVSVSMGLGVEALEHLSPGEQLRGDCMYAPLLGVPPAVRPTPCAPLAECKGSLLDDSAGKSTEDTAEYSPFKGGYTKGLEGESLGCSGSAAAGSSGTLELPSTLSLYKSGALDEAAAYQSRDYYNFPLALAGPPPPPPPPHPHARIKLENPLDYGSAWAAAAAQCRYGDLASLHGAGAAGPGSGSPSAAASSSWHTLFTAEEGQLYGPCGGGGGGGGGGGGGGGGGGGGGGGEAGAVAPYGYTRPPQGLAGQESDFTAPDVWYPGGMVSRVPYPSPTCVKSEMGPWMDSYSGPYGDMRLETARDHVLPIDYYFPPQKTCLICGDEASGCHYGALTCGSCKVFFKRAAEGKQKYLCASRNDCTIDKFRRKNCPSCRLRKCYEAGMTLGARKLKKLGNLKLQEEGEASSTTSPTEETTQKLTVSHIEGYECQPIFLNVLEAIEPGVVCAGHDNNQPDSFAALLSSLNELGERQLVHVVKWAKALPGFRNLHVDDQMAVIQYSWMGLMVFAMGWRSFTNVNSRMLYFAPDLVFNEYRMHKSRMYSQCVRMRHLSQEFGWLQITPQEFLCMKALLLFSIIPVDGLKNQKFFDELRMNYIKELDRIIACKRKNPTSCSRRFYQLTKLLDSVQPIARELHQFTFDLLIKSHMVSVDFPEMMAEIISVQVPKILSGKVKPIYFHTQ
Description: Our library contained predominantly 15 random amino acid residues/peptide in order to identify motifs that might interact with nuclear receptor domains. If ligand is provided to the cells, one can screen for peptides that interact with the ligand-bound receptor. […] Included at the ends of the oligonucleotide were the synthetic restriction endonuclease cleavage sites, EcoRI or Mfe I (5′ end) and Sal I (3′ end). Oligonucleotides were annealed, then cleaved with excess restriction endonuclease and purified on agarose gels. The purified set of oligonucleotides was subcloned as an in-frame carboxy-terminal fusion to a Gal4 DNA binding domain (plasmid vector pMA424 derivative). […] The transformation mix was divided and grown on plates of selective media containing ligand and 25 mM 3-aminotriazole at 30° C. until colonies appeared in 3-7 days. […] Dihydrotestosterone (DHT) and medroxyprogesterone (MPA) were added to the media at 100 nM to identify peptides that interact with the receptor in the presence of ligand. After colonies appeared they were picked and dispersed into individual wells of a 96-well plate containing rich media (YPD).
To determine ligand dependence, two microliter aliquots were removed from the cell suspension, and arrayed and spotted onto each of two rectangular agar plates, one with 100 nM ligand and one without ligand. Growth was monitored daily.
A secondary test of ligand dependent activation was performed using the integrated GAL4-driven lacZ gene. Cell suspensions of the initial positive clones were diluted 20-fold into 20 microliters of rich media in a microplate and grown overnight at 30° C. in the presence and absence of ligand. Microplates were centrifuged for 5 minutes at 3000 rpm in a swinging table top centrifuge to pellet the yeast cells, and the overlying media was aspirated. […] An OD650 density determination was made to normalize the β-galactosidase activity. β-galactosidase activity was monitored following the addition of buffer containing chlorophenol red-β-galactopyranoside (CPRG) (Boehringer Mannheim) substrate at a final concentration of 0.5 mM. […] The maximum slope value of this measurement was normalized to cell density from the initial OD650 value, and the relative ligand dependence of β-galactosidase was determined by comparing the values plus and minus ligand.
In FIG. 3, all of these ligands were tested. The plasmids from true positives were extracted using standard yeast extraction protocols and re-transformed to verify the positive phenotype.

androgen receptor [2] = biological target: T1, androgen receptor; type: cell-based; parameters: expressed in transfected cells
Description: We used a mammalian two-hybrid system to determine specificities of the AR-binding peptides previously identified, through screening of the aforementioned yeast library, as ligand-dependent in their binding activity. Ligand was provided to the cells so the interaction could be observed. The human hepatoma cell line, Huh-7, was used as the recipient of two-hybrid vectors, pM and pVP16 (Clontech) (FIGS. 6A and 6B), containing fusions with peptide and AR, respectively. According to Clontech literature, the Clontech vectors pM and VP16 generate fusions of protein X with the GAL4 DNA-BD and fusions of protein Y with the VP16AD, in the Mammalian MM Two-Hybrid Assay Kit (#K1602-1). (Note: pM and VP16 contain unique cloning sites in the same order and reading frame as the DNA-BD and AD, respectively, vectors in the yeast […] Two-Hybrid Systems.) A third vector, pG5CAT, provides a CAT reporter gene under the control of a GAL4-responsive element and minimal promoter of the adenovirus E1b. The three vectors are cotransfected into any suitable mammalian host cell line by standard methods. The interaction between proteins X and Y is then assayed by measuring CAT gene expression by any standard method. In the absence of activation (i.e., no protein-protein interaction), the minimal E1b promoter will not express significant levels of CAT.
Briefly, cells are seeded in a 24-well culture plate to a density of 50-80% confluence in phenol red-free media containing charcoal-dextran stripped fetal bovine serum (10%). Following incubation overnight, cells are transfected with plasmids pM-peptide, pVP16-AR, pCMV-b-gal, and p5XGAL-Luc3 DNAs using lipofectamine 2000 (LifeTech) according to the manufacturer's protocol. Transfections are allowed to proceed for 6 hours and the transfection media is aspirated and replaced with recovery media for 18 hours. Following the recovery period, cells are treated with compound for 24 hours prior to cell harvesting. Cells are washed with PBS and then lysed using the lysis buffer from the Galacto-Light Plus β-galactosidase assay kit (Tropix). Assays for luciferase and β-galactosidase were performed as described by the manufacturer. Peptide/AR interactions are described in terms of the luciferase activity normalized for transfection efficiency using β-galactosidase activity (see FIG. 4A). Two types of useful information arose from these methods: 1) we generated a panel of useful peptide probes to analyze the conformational state of AR, and 2) we “fingerprinted” AR modulators with respect to AR conformation (FIG. 4B). […] FIG. 4B is the converse of 4A. It compares the ability of six ligands (DHT, MPA, CYP, RU486, FLUT and DHEAs to interact with AR in the presence of each of four peptides (D30, 5G11, B8H3 and […]). Thus, it is a “fingerprint” of each of the six ligands using a four peptide panel. (Note that “1269” and D30” refer to the same peptide.)

androgen receptor [3] = biological target: T1, androgen receptor; type: cell-based; parameters: expressed in transfected cells; remark: listed apart in the source
[4] = biological target: ER β (immobilized, in vitro phage assays) (UniProt Q92731 1-530, limits assumed); test: phage ELISA; ICI 182,780 1 µM
[5] = biological target: T2, ER β (immobilized, in vitro phage assays), Q92731; test: phage ELISA; clomiphene 10 µM
T2 chain: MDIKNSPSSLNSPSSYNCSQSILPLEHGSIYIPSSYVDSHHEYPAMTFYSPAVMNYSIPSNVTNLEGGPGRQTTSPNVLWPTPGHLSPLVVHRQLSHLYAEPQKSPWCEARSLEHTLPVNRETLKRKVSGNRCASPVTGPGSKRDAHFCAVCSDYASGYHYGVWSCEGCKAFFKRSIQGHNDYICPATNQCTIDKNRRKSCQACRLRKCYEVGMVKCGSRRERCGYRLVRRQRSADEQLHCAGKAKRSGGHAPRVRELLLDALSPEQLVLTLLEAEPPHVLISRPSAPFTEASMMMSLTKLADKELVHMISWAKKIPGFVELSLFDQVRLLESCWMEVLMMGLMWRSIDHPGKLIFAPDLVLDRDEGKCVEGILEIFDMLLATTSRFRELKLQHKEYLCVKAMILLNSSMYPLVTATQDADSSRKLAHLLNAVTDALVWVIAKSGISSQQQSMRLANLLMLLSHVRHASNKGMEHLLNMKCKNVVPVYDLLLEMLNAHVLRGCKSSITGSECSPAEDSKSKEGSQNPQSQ

[6] = biological target: T2, ER β (immobilized, in vitro phage …); test: phage ELISA; ICI 182,780 1 µM
[7] = biological target: T2, ER β (immobilized, in vitro phage …); test: phage ELISA; raloxifene 1 µM
[8] = biological target: T2, ER β (immobilized, in vitro phage …); test: phage ELISA; 4-OH tamoxifen 1 µM
[9] = biological target: T3, Gal4 transcriptional activation domain (AD) fused in frame with AR (pGAD-C2) (yeast, UniProt P10275 1-920, limits assumed); test: cell-based or functional assay
T3 sequence (looked up): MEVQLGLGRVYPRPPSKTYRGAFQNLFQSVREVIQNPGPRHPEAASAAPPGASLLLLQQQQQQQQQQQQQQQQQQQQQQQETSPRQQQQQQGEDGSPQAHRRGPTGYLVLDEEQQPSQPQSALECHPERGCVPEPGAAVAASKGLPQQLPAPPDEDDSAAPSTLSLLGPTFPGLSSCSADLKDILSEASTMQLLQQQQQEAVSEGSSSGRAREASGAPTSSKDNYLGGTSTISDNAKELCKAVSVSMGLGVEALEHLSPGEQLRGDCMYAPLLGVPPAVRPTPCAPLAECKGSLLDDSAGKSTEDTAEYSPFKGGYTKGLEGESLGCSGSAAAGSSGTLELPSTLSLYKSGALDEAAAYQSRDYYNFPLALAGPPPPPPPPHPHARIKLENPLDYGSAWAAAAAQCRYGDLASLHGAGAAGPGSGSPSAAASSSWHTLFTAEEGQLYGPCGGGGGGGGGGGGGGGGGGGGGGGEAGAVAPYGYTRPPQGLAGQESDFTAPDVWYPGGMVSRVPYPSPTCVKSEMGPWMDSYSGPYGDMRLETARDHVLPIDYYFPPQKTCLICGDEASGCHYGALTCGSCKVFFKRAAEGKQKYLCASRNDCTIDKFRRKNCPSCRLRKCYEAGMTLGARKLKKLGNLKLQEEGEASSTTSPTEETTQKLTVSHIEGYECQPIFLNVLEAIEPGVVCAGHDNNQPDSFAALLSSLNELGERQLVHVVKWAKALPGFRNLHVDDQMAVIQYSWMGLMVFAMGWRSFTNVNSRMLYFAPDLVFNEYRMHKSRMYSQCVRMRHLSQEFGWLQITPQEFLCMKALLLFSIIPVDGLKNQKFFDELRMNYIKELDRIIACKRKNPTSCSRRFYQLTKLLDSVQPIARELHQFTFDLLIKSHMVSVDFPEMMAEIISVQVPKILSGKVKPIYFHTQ

[10] = biological target: T3, Gal4 transcriptional activation domain …; test: cell-based or functional assay; remark: listed apart in the source

EFQQCMCAEVKSWLGGSLDLQPS* [B8E9] was tested, and the Fold induction (androgen receptor [1]; untitled table before Table 503, values match DHT / No Lig of Table 503) was 4, the “ligand induced β-galactosidase activity, CPA” value (androgen receptor [1]; yeast two-hybrid, ligand CPA) was 0.5635 and the “ligand induced β-galactosidase activity, DHT” value (androgen receptor [1]; yeast two-hybrid, ligand DHT) was 1.75. For the same molecule, the “ligand induced β-galactosidase activity, RU” value (androgen receptor [1]; yeast two-hybrid, ligand RU) was 0.8, the “ligand induced β-galactosidase activity, No Lig” value (androgen receptor [1]; yeast two-hybrid, no ligand) was 0.4989 and the “luciferase normalized to β-galactosidase, CYP.” value (androgen receptor [2]) was 16.02. For the same molecule, the “luciferase normalized to β-galactosidase, DHT” value (androgen receptor [2]; mammalian two-hybrid, Huh-7 cells, ligand DHT) was 19.64, the “luciferase normalized to β-galactosidase, MPA” value (androgen receptor [2]; mammalian two-hybrid, Huh-7 cells, ligand MPA) was 18.51 and the “luciferase normalized to β-galactosidase, RU486” value (androgen receptor [2]; mammalian two-hybrid, Huh-7 cells, ligand RU486) was 10.1916. For the same molecule, the “luciferase normalized to β-galactosidase, no compound” value (androgen receptor [2]; mammalian two-hybrid, Huh-7 cells, no compound) was 0.2091, the “Binding to the androgen receptor in the presence of both agonists and known antagonists” value (androgen receptor [3]; ligand present) was “displays binding” and the “Binding to the androgen receptor in the absence of ligand” value (androgen receptor [3]; no ligand) was “not”.

SSLDLSQFPMTASFLRESR (also called 35Eβ) [β II (B2)] was tested, and the “phage ELISA grade” value [4] was 0.

SSNHQSSRLIELLSR (modifications not checked) [Phage # 4 (Table 2)] showed a phage ELISA grade [5] of 0, a phage ELISA grade [6] of 0 and a phage ELISA grade [7] of 0. For the same molecule, the phage ELISA grade [8] was 0.

B1: M4D1 (peptide)
chain: MKLLSSIEQACDICRLKKLKCSKEKPKCAKCLKNNWECRYSPKTKRSPLTRAHLTEVESRLERLEQLFLLIFPREDLDMILKMDSLQDIKALLTGLFVQDNVNKDAVTDRLASVETDMPLTLRQHRISATSSSEESSNKGQRQLTVSEFRFPFHEMVREWESMGLERVRYAEP
With B1 the “Fold induction, yeast two-hybrid” value [9] was over 2 fold, the “β-galactosidase activity, yeast two-hybrid; CPA” value [10] was -0.0396 and the “β-galactosidase activity, yeast two-hybrid; DHT” value [10] was 0.395. For the same molecule, the “β-galactosidase activity, yeast two-hybrid; No Lig” value [10] was 0 and the “β-galactosidase activity, yeast two-hybrid; RU” value [10] was 0.1.

With SSPGSREWFKDMLSR (also called 14Tβ; 14T-β) [α/β V (AB5)] the “phage ELISA grade” value [4] was 0.

B2: M2H3 (peptide)
chain: MKLLSSIEQACDICRLKKLKCSKEKPKCAKCLKNNWECRYSPKTKRSPLTRAHLTEVESRLERLEQLFLLIFPREDLDMILKMDSLQDIKALLTGLFVQDNVNKDAVTDRLASVETDMPLTLRQHRISATSSSEESSNKGQRQLTVSEFRQSFVSEILGGGWLPLDLQPS
For B2, the “Fold induction, yeast two-hybrid” value [9] was 10 fold, the “β-galactosidase activity, yeast two-hybrid; CPA” value [10] was 8.59 and the “β-galactosidase activity, yeast two-hybrid; DHT” value [10] was 24.1. The “β-galactosidase activity, yeast two-hybrid; No Lig” value [10] was 2.53 and the “β-galactosidase activity, yeast two-hybrid; RU” value [10] was 6.8.
